Laboratory results reported in the Immune Epitope Database (IEDB).

Columns and labels:
Experiment in all cases: IEDB peptide-MHC binding, purified MHC/direct/fluorescence; filed as Kd, often an IC50 or EC50 that approximates it; ≥ and ≤ were set here for values at or beyond the usual limits of such assays
HLA-B*57:01 = details: source organism: Salmonella enterica
HLA-B*08:02 = details: source organism: Salmonella enterica subsp. enterica serovar Typhimurium str. LT2
HLA-A*02:50 = details: source organism: Salmonella enterica subsp. enterica serovar Typhimurium str. LT2
HLA-A*24:03 = details: source organism: Salmonella enterica subsp. enterica serovar Typhimurium str. LT2
HLA-A*69:01 = details: source organism: Salmonella enterica
HLA-B*27:05 = details: source organism: Salmonella enterica
HLA-A*26:02 = details: source organism: Salmonella enterica subsp. enterica serovar Typhimurium str. LT2
HLA-A*02:10 = details: source organism: Salmonella enterica subsp. enterica serovar Typhimurium str. LT2
HLA-A*02:12 = details: source organism: Salmonella enterica subsp. enterica serovar Typhimurium str. LT2
HLA-B*18:01 = details: source organism: Salmonella enterica subsp. enterica serovar Typhimurium str. LT2

Measured: Kd

FPASHMATY
7 nM: HLA-B*18:01
≤ 1 nM: HLA-A*26:02
≥ 20 µM: all other assays above
